{GalNAc3} = trishexylamino-C6 triantennary GalNAc conjugate; e = 2'-O-(2-methoxyethyl) (MOE); d = 2'-deoxy (DNA)
Assays:
BSEP = system: T1, BSEP; experiment: BSEP inhibition study in Sf9 membrane vesicles; format: in vitro ADME; conditions: 100 μM ASO, 1 μM taurocholate
T1 construct: purchased Life Technologies; host or cells: Sf9 cells (membrane vesicles)
Description: The test system included a 96-well flat bottom plate containing a suspension of vesicles and a 96-well glass fiber filtration plate. Transport experiments were initiated with the addition of Mg-ATP (for ATP-dependent BSEP uptake) or AMP (non-ATP-dependent uptake) to appropriate wells. Preparation of the flat-bottom plates included incubation with blocking buffer for 60 min at 37°C with orbital shaking at 120 rpm. After 60 min, the blocking buffer was completely removed and assay uptake buffer solutions were added. For BSEP inhibition studies, solutions contained 1 μM [^3H]-taurocholic acid as a substrate and either assay vehicle, test article (at 100 μM), or reference inhibitor (300 μM rifampicin). For BSEP substrate studies, solutions contained either 1 μM [^3H]-taurocholic acid or 10 μM test article. […] These samples were counted using a 1450 Microbeta (Perkin-Elmer). […] The test article was quantitated by LC-MS.
Signal to noise for the BSEP probe substrate was calculated by dividing the uptake of the probe substrate in BSEP-expressing vesicles in the presence of ATP by the uptake of the BSEP substrate in the vesicles in the presence of AMP. Percent inhibition in the presence of the test article or the reference inhibitors was calculated as: %inhibition=100−(100×(ATP−dependent,transportor−mediatedaccumulation)withinhibitor/(ATP−dependent,transportor−mediatedaccumulation)withoutinhibitor).

CYP3A4 = conditions: ASO 100 μM, human hepatocytes 72 hr, vs PBS 1% vehicle, mean ± SD of triplicate
Description: (§1) Upon receipt, sandwich-cultured cryopreserved human hepatocytes (with Matrigel) plated on collagen-coated 24-well plates were inspected under a microscope for general morphology and viability. Fresh culture medium (OptiCulture Hepatocyte Media) was added to each plate that passed the visual inspection. The plates were then placed in an incubator set to 37°C with 5% carbon dioxide (CO2) for overnight acclimation. […] During this time, cells in parallel wells were also treated with 50.0 μM omeprazole (inducer of CYP1A2), 1,000 μM phenobarbital (inducer of CYP2B6), or 10.0 μM rifampicin (inducer of CYP3A4) in triplicate, respectively.
(§2) The plates were then incubated at 37°C with 5% CO2 for 60 min. […] Aliquots of the supernatants were analyzed by LC-MS/MS for the formation of acetaminophen, hydroxyl-bupropion, or hydroxyl-midazolam as markers for enzyme activity of CYP1A2, CYP2B6, and CYP3A4, respectively.
(§3) The activity of each CYP enzyme was measured by comparing the peak area ratio of the corresponding product to the peak area ratio of the internal standard. The fold induction was calculated by dividing the peak area ratio of each individual well from the treatment group by the mean of the peak area ratios obtained from the vehicle control wells. […] The ΔCƬ was calculated as follows: ΔCƬ = CƬ (CYP) − CƬ (GAPDH). […] The ΔΔCƬ was calculated as follows: ΔΔCƬ = Δ CƬ (Treatment) − Δ CƬ (Vehicle). […]

CYP2B6 mRNA = CYP2B6 mRNA induction in plated human hepatocytes; conditions: ASO 100 μM, human hepatocytes 72 hr, vs PBS 1% vehicle, mean ± SD of triplicate
Description: as §1
After collection of the supernatant for catalytic analysis, the remaining cells were washed and lysed with QIAGEN Buffer RLT from the QIAGEN RNeasy Kit. […]
The activity of each CYP enzyme was measured by comparing the peak area ratio of the corresponding product to the peak area ratio of the internal standard. The fold induction was calculated by dividing the peak area ratio of each individual well from the treatment group by the mean of the peak area ratios obtained from the vehicle control wells. […] The ΔCƬ was calculated as follows: ΔCƬ = CƬ (CYP) − CƬ (GAPDH). […] The ΔΔCƬ was calculated as follows: ΔΔCƬ = Δ CƬ (Treatment) − Δ CƬ (Vehicle). The fold induction of the target CYP was calculated using the following equation: Fold=2^-ΔΔCT.

CYP1A2 = CYP1A2 enzyme activity induction in plated human hepatocytes; conditions: ASO 100 μM, human hepatocytes 72 hr, vs PBS 1% vehicle, mean ± SD of triplicate
Description: as §1, §2, §3

CYP2B6 = CYP2B6 enzyme activity induction in plated human hepatocytes; conditions: ASO 100 μM, human hepatocytes 72 hr, vs PBS 1% vehicle, mean ± SD of triplicate
Description: as §1, §2, §3

| Substance | Enhancement of probe substrate uptake, BSEP (BSEP) [%] | Fold induction of CYP3A4 enzyme activity (CYP3A4) [fold] | Fold induction of CYP2B6 mRNA (CYP2B6 mRNA) [fold] | Fold induction of CYP1A2 enzyme activity (CYP1A2) [fold] | Fold induction of CYP2B6 enzyme activity (CYP2B6) [fold] |
| --- | --- | --- | --- | --- | --- |
| ISIS 304801: 20-mer (5-10-5) 2′-MOE gapmer PS backbone antisense inhibitor of apoC-III, sequence AGCTTCTTGTCCAGCTTTAT (sugars from the 5' end e5 d10 e5, all phosphorothioate, methylation of C not given here) | 21.0 | – | – | – | – |
| ISIS 681257: 20-mer 2′-MOE gapmer PS/PO mixed backbone ASO conjugated to 5′-trishexylamino GalNAc3, targets Lp(a), sequence TGCTCCGTTGGTGCTTGTTC (5' {GalNAc3}, sugars by position and backbone not given here; 2'-MOE gapmer with mixed PS/PO backbone) | – | 1.67 ± 0.310 | 1.36 ± 0.347 | 1.40 ± 0.116 | 1.20 ± 0.389 |

From publication PMC5602538, “Assessment of the Drug Interaction Potential of Unconjugated and GalNAc3-Conjugated 2′-MOE-ASOs” (Molecular Therapy. Nucleic Acids, 2017)
